Reference: the domain aggregation screens of Martell et al. (2025)

Experiment: soluble fraction after stress (log2 fold change); higher = more stays soluble; pooled small domains, quantitative proteomics
Details: stress: 50 degC
How it was run: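 The measure of aggregation propensity here is the base-two logarithm of the fold change in the soluble amount of each protein after stress. A higher value means more of that protein stays in solution. Stress was applied at 50°C to pooled libraries of small protein domains, read out by high-throughput quantitative proteomics.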

Sequence | soluble fraction (log2)
HMKTDLQIQQDVMAELKWEPKVNAAHIGVEVKHGVVTLSGHVDSFAEKWNAEQAAKRVAGVKFIAIELDV | -1.67
HMQGQADFTQGIANFTQYPVGSRITVFTLEGRRVAVVEIGKDGTAQLDMRNKPAGVYIVNTGKQSFKWLK | -1.26
HMATPEINNLGRLRNAINQSNVNWHQIIKRLQNEYPNNWRQILIAIDRHDLLFRYDVENYIKYG | -1.56
HMESRMTYLQKTKLATENLDAKLIDHQQWVAEVLGEDYRGVYSDEYLRRAAKVFAIFVNNLDD | -2.18
HMKQAINFSDLNSLEEGLGIAIRQKWNEVSINDVPEDKIELVEDWINNNRGKYKGINISIGSTY | 0.167
HMSIYDAPIEDLKFSTRIFNSLKRADIHTVADLIAHSRDDLMKVRNLGATSLDELIEKLGTHGLQLADP | -0.254
HMKVNMIIVMKPGARETDIQEVSNVLKSAGLGVHISKGTERTIIGVIGDKRLLNGIPLDLMHGVDKLVPIM | 0.0193
HMKLPIEKESYRIIWDLEEESFRIRLKISENSPQEEKNILINQAIEDIENITGEPIDKSPYYVLYE | 0.0672
HMFMPGTIIKQFRELRNYSQDYVSRKMGISQNAYSKIENNITQLTVTHVKQLSSILDVPIVELLR | -3.32
HMDLHERISSVLLGTGKSNDELAQILGVNKNTISAYKNKHGDLKGIVLEGIVKHFDINPVWLLTGSGTR | -0.54
HMKKHAPSLMRQIRRELKEGKSPESLLSKAKLISDSYYRSLSFYLLIPYLSPNSKQFQEAISLAGKDID | 0.255
HMGPPLISLDDGLAKGFGVGVGDTLTINILGRRITATIASLREIDWQSLRFDFAVVLSPGVLEGA | 0.0913
HMQRFIHITVSDVHQATRLLEEEMQLTNYSVAENNAIKIFEFTYEPQEINHLFGKNGIEVSSLFIGS | -0.134
HMSEPIYTQLKEILTQKIVNGEFPPGARLPSEYELTELYHISRSTVRLALKELEASGMIVRRRGKGTFVSS | -1.76
HMAPFVIQQGQDVRLISKGPGFAVSNDGKALTNAAEGQLARARTANGQTVSGIARQGGIIEIA | 0.00455
HMTVSLTDVPFVPEILDRLERPELDVLLAILNGATNTFDLAAKTGRSRDELDEVLDRLTTLGLIER | -0.214
HMRMDKHLWLSLLRLINEGSAEELQTKKDELLQSLERLRITRGPVRGDVLRVVRLIDEELVSRLHLDQR | -2.29
HMGTAVKAPMPGTILKVNVTAGQSVKAGDIMFILEAMKMENEIVAPSDGTVSQVVAAKGSSVATDDVLAYL | -0.0338
HMQAPVDPIVLGKMGSSYGIRGWLRVFSSTEDAESIFDYQPWFIQKAGQWQQVQLESWKHHNQDMIIKLN | 0.0749
HMREEIESVYKTLAVTEIPYIARGNSARLGSGIQTVYDFYRMEGMQVSKILGRNGSVLWLELHG | 0.126
HMEDIQPSVIFQNNMIDGFKKFGVSFLQNRRNVNVNTLNGLASAGTYPKWQQLLVNKISYIDMLLSTGG | 0.0785
HMFERIYVFSRDGDIIELPKGSTVLDFAYHVHTHVGNRAQAARVNKRYVPLTYQLKTGEQVEIIIS | -1.2
HMKTEIKSPLPGIVLKIFVRTGEYVDKNQRLFSLEAMKMENEIKAERAGVIAGIRISEGQSVLQDEVIMEM | -0.297
HMDYGSISFINWSIEVLSVIKTRLDRGDKIIDEVSGEKYTASSFEKFVRKNFSSYIFSQVYAEDHKK | -2.55
HMFYWTDLIGLDVINTADERLGKVVGLIETGANAVLRVMGDDQVERLLPFGSAVVLTVEKEAGQIRVEW | -0.89

Sequence | soluble fraction (log2)
HMDFGHWAAHKLEQMSEYRLRHGEAVAIGIALDVLYSVRQGLLARPAAERILSLLERLGFTLFDPELKS | -0.213
HMIGKLTSSKLAAIHKMKTNELLAHFTEKGFLNINDAGKYILTQQGKDVGAEFKTSQYGGYFLWPENIE | -0.841
HMNVDALVGQRGRVTQTFDPGLRLGRVAVGGDDWRAETTTDQPLREGDLVEVVSVESNTLIVRPIA | -0.0828
HMDGTAKVAHMLVNELETFNRLKKHEIAYMLHIQPETLSRILNKLTRNGTIEIEKNSVVILNIQELKEIY | -1.55
HMDVNLSIRSGETIGIIGSTGSAKSTLVQLIPRLYDTTEGEVLVGGVNVKNYDLEALRNSVAMVLQKN | -0.066
HMEDNKLKNEIKNELVSHLEKPYSVEDLADALKYHGSAAFKLIVQELAILERERAVVVTHDGNFKINSS | -0.619
HMTRYQHLAMLLEKRIAQGLYRNGERLPSVRSLSAEHGVSISTVQQAYYLLEQKQLIIPQSRSGYYVAPH | -4.42
HMDMSVDQFNQGIRGSELYQQFIHGRGLQQPDGKTREWTDADRNAWRRTLEASGVRIPDGMKIDNAGNLNE | 0.275
HMSEQLVGTVGHITVGTARTASPAEAKFLDAFEQPHYLLVEPIEPKDIFQQGDKVVLVKKQHHSWLATRYI | -0.267
HMKIQISGSQRIDENVVVKVAGLSFPQSLLSLEPGQIESKLMQELPVQEVSVQRRLLPPGLDIQLVE | 0.0631
HMLDLSDFEVVRDLYLSEQIWNVGDLIIARSKKDDTYKAWEIIRKGTNYVTGIDESHKVEKIWLHDILI | -1.4
HMLRDTTLLHIDSIVRDGSTAMANITVRDEGTDLEFPLQLRMERGDMGWQVVRIVNYRAYLEAVQKA | -0.336
HMYLPGERMRIKITALGSNPKQGVGYLPDGMMVVVDEAATLVGRFVEIEFVKFLQTNSGRMMFAKVAT | -0.224
HMIQTMVVTDLKNGTIFKENGHPFIVLKYEHIKVSRGSAQVRVKMKNLITGQVLEKSWQSTAHVDDT | -2.1
HMAKNYYEILGLKSDATLPEIKKAFKKLSKKFHPDKNRDDDGYFESMFKSINEAYQVLIDEDKRATFDSHH | -0.59
HMAPLADQIVDLLKEHDGFLPLHDNSSPEDIRATVGTSKKAFKQAIGGLFREKRIVIGPTGIRLIS | -0.378
HMGDGYTYYYDDTVLALGFTKIGNDYYIFNTFSGKMYKDATMWVNDNPYGIKGGMHYFDASGKMFV | 0.128
HMISKQQRQALILDIIQKQSITSQEALLTELQRHHVMTTQTTVSRDIRALGIVRIKDVNGELSYQQLQ | -2.5
HMYYNQGILKSGASVYGEPGITSSHRLEIPSGSFVDIVQEKDEWVYYEKNHVNHGWVLRENIYIPSL | 0.0681
HMADLNQTDIDSITKSVGGVEQYKSLMDWAGKTLSQDAIDSFDDLVNTGNKGSIQLAVNGLVAQYQNDN | 0.0325
HMRIPANIAEDIKKLQKKEHHLHHHLGRDPFDDELAKELEWDTEQVSEIRQMIKNPELLEELLEAEREEE | 0.172
HMKPAFTPYVVKVTADVLNVRSGPGTNYGITTKVKKGEAYTIVEEKNGWGKLKSGAGWISLEYTVK | -0.109
HMKHEFSEEWLDWIKSNIADGQNKNGLFKVLLNHGYAYDAVREVMQYEPTVPLDELVDPLRA | -0.139
HMRGLGDLEPVDSLGKIRIDDGHMVLAFGRHKGRHLSEVQAEDPRYIHWLLSPKGIEDVEAREKVKVYLEG | -0.0024
HMVNPDAPAPLYIVNGKETDKNIALAIKPEDVQDVRIIKNTVALQVYGEKGKNGVVIINTKPGV | 0.206
